Patent US20210292396A1 (INTERNATIONAL AIDS VACCINE INITIATIVE, published 2021)

Columns and labels:
Assay in all cases: cell-based or functional assay
[1] = molecular target: HIV Env of isolate 1054_07_TC4_1499 (HIV)
HIV Env of isolate CNE21 = HIV Env of isolate CNE21 (HIV)
HIV Env of isolate CNE58 = HIV Env of isolate CNE58 (HIV)
[2] = molecular target: HIV Env of isolate Ce1176_A3 (HIV)
[3] = molecular target: HIV Env of isolate WEAU_d15_410_5017 (HIV)
[4] = molecular target: HIV Env of isolate Q461.e2 (HIV)
[5] = molecular target: HIV Env of isolate 6480.v4.c25 (HIV)
[6] = molecular target: HIV Env of isolate 89-F1_2_25 (HIV)
[7] = molecular target: HIV Env of isolate 6545.v4.c1 (HIV)
[8] = molecular target: HIV Env of isolate X1254_c3 (HIV)
[9] = molecular target: HIV Env of isolate ZM135M.PL10a (HIV)
[10] = molecular target: HIV Env of isolate C4118.c09 (HIV)
[11] = molecular target: HIV Env of isolate Q23.17 (HIV)
[12] = molecular target: HIV Env of isolate X2131_C1_B5 (HIV)
[13] = molecular target: HIV Env of isolate 6535.3 (HIV)
[14] = molecular target: HIV Env of isolate TRJO4551.58 (HIV)
[15] = molecular target: HIV Env of isolate SC05_8C11_2344 (HIV)
[16] = molecular target: HIV Env of isolate 191084_B7-19 (HIV)
[17] = molecular target: HIV Env of isolate AC10.0.29 (HIV)
HIV Env of isolate PVO.4 = HIV Env of isolate PVO.4 (HIV)
[18] = molecular target: HIV Env of isolate 6244_13_B5_4576 (HIV)
[19] = molecular target: HIV Env of isolate P1981_C5_3 (HIV)
[20] = molecular target: HIV Env of isolate HIV-001428-2.42 (HIV)
[21] = molecular target: HIV Env of isolate Ce2010_F5 (HIV)
[22] = molecular target: HIV Env of isolate T257-31 (HIV)
[23] = molecular target: HIV Env of isolate T250-4 (HIV)
HIV Env of isolate CNE52 = HIV Env of isolate CNE52 (HIV)
[24] = molecular target: HIV Env of isolate C3347.c11 (HIV)
[25] = molecular target: HIV Env of isolate Du422.1 (HIV)
[26] = molecular target: HIV Env of isolate Ce1172_H1 (HIV)
[27] = molecular target: HIV Env of isolate 231965.c01 (HIV)
[28] = molecular target: HIV Env of isolate HIV-16055-2.3 (HIV)
HIV Env of isolate CNE20 = HIV Env of isolate CNE20 (HIV)
[29] = molecular target: HIV Env of isolate X1632_S2_B10 (HIV)
[30] = molecular target: HIV Env of isolate BF1266.431a (HIV)
[31] = molecular target: HIV Env of isolate 7030102001E5(Rev-) (HIV)
[32] = molecular target: HIV Env of isolate MS208.A1 (HIV)
[33] = molecular target: HIV Env of isolate BJOX015000.11.5 (HIV)
[34] = molecular target: HIV Env of isolate 6540.v4.c1 (HIV)
HIV Env of isolate CNE17 = HIV Env of isolate CNE17 (HIV)
[35] = molecular target: HIV Env of isolate R3265.c06 (HIV)
[36] = molecular target: HIV Env of isolate ZM53M.PB12 (HIV)
[37] = molecular target: HIV Env of isolate R1166.c01 (HIV)
HIV Env of isolate CNE8 = HIV Env of isolate CNE8 (HIV)
[38] = molecular target: HIV Env of isolate C1080.c03 (HIV)

B1: PGT-121 (antibody, V domains shown)
VH: QMQLQESGPGLVKPSETLSLTCSVSGASISDSYWSWIRRSPGKGLEWIGYVHKSGDTNYSPSLKSRVNLSLDTSKNQVSLSLVAATAADSGKYYCARTLHGRRIYGIVAFNEWFTYFYMDVWGNGTQVTVSS
VL: SDISVAPGETARISCGEKSLGSRAVQWYQHRAGQAPSLIIYNNQDRPSGIPERFSGSPDSPFGTTATLTITSVEAGDEADYYCHIWDSRVPTKWVFGGGTTLTVLG
- neutralization IC50 [1]: 0.064 µg/mL
- neutralization IC50 (HIV Env of isolate CNE21): 0.007 µg/mL
- neutralization IC50 (HIV Env of isolate CNE58): > 50 µg/mL
- neutralization IC50 [2]: 0.013 µg/mL
- neutralization IC50 [3]: 0.026 µg/mL
- neutralization IC50 [4]: > 50 µg/mL
- neutralization IC50 [5]: 0.001 µg/mL
- neutralization IC50 [6]: > 50 µg/mL
- neutralization IC50 [7]: > 50 µg/mL
- neutralization IC50 [8]: 0.014 µg/mL
- neutralization IC50 [9]: 0.716 µg/mL
- neutralization IC50 [10]: > 50 µg/mL
- neutralization IC50 [11]: 0.001 µg/mL
- neutralization IC50 [12]: 0.004 µg/mL
- neutralization IC50 [13]: 0.002 µg/mL
- neutralization IC50 [14]: 1.31 µg/mL
- neutralization IC50 [15]: 0.019 µg/mL
- neutralization IC50 [16]: 0.011 µg/mL
- neutralization IC50 [17]: 0.024 µg/mL
- neutralization IC50 (HIV Env of isolate PVO.4): 0.098 µg/mL
- neutralization IC50 [18]: 0.061 µg/mL
- neutralization IC50 [19]: 0.001 µg/mL
- neutralization IC50 [20]: 0.014 µg/mL
- neutralization IC50 [21]: > 50 µg/mL
- neutralization IC50 [22]: > 50 µg/mL
- neutralization IC50 [23]: 0.001 µg/mL
- neutralization IC50 (HIV Env of isolate CNE52): 2.05 µg/mL
- neutralization IC50 [24]: > 50 µg/mL
- neutralization IC50 [25]: 0.039 µg/mL
- neutralization IC50 [26]: 0.011 µg/mL
- neutralization IC50 [27]: > 50 µg/mL
- neutralization IC50 [28]: 0.153 µg/mL
- neutralization IC50 (HIV Env of isolate CNE20): 0.001 µg/mL
- neutralization IC50 [29]: > 50 µg/mL
- neutralization IC50 [30]: > 50 µg/mL
- neutralization IC50 [31]: 0.009 µg/mL
- neutralization IC50 [32]: > 50 µg/mL
- neutralization IC50 [33]: > 50 µg/mL
- neutralization IC50 [34]: > 50 µg/mL
- neutralization IC50 (HIV Env of isolate CNE17): 7.6 µg/mL
- neutralization IC50 [35]: > 50 µg/mL
- neutralization IC50 [36]: 0.001 µg/mL
- neutralization IC50 [37]: > 50 µg/mL
- neutralization IC50 (HIV Env of isolate CNE8): > 50 µg/mL
- neutralization IC50 [38]: > 50 µg/mL

B2: ePGT121.15.H1.L1 (antibody, V domains shown)
VH: QMQLQESGPGLVKPGETLSLTCSVSGASISSSYWSWLRETPGKGLEWIGYTHHSGDTNYAPSLKSRVHLGLHPSKNQVSLSLTSVTAADTAVYYCARTLHGRRIYGVVAFNEWFTYFYWEVWGNGTQVTVSS
VL: SDISVAPGETVRISCGGESIGSRAVQWYQHRAGQAPKLIIYNNQDRPPGIPERFSGSPDIDFGTTATLTITNVEAGDEATYYCHIWDSRRPTNWVFGGGTTLTVL
- neutralization IC50 [1]: 0.0001 µg/mL
- neutralization IC50 (HIV Env of isolate CNE21): 0.0001 µg/mL
- neutralization IC50 (HIV Env of isolate CNE58): 0.0025 µg/mL
- neutralization IC50 [2]: 0.0004 µg/mL
- neutralization IC50 [3]: 0.0001 µg/mL
- neutralization IC50 [4]: > 50 µg/mL
- neutralization IC50 [5]: 0.0012 µg/mL
- neutralization IC50 [6]: > 50 µg/mL
- neutralization IC50 [7]: > 50 µg/mL
- neutralization IC50 [8]: 0.0014 µg/mL
- neutralization IC50 [9]: 0.132 µg/mL
- neutralization IC50 [10]: > 50 µg/mL
- neutralization IC50 [11]: 0.0004 µg/mL
- neutralization IC50 [12]: 0.0004 µg/mL
- neutralization IC50 [13]: 0.0003 µg/mL
- neutralization IC50 [14]: 0.0005 µg/mL
- neutralization IC50 [15]: 0.0009 µg/mL
- neutralization IC50 [16]: 0.0009 µg/mL
- neutralization IC50 [17]: 0.0002 µg/mL
- neutralization IC50 (HIV Env of isolate PVO.4): 0.0004 µg/mL
- neutralization IC50 [18]: 0.0037 µg/mL
- neutralization IC50 [19]: 0.0014 µg/mL
- neutralization IC50 [20]: 0.0001 µg/mL
- neutralization IC50 [21]: > 50 µg/mL
- neutralization IC50 [22]: > 50 µg/mL
- neutralization IC50 [23]: 0.0002 µg/mL
- neutralization IC50 (HIV Env of isolate CNE52): 0.0203 µg/mL
- neutralization IC50 [24]: > 50 µg/mL
- neutralization IC50 [25]: 0.0007 µg/mL
- neutralization IC50 [26]: 0.0003 µg/mL
- neutralization IC50 [27]: > 50 µg/mL
- neutralization IC50 [28]: 0.0003 µg/mL
- neutralization IC50 (HIV Env of isolate CNE20): 0.0003 µg/mL
- neutralization IC50 [29]: > 50 µg/mL
- neutralization IC50 [30]: > 50 µg/mL
- neutralization IC50 [31]: 0.0002 µg/mL
- neutralization IC50 [32]: > 50 µg/mL
- neutralization IC50 [33]: > 50 µg/mL
- neutralization IC50 [34]: > 50 µg/mL
- neutralization IC50 (HIV Env of isolate CNE17): 0.0037 µg/mL
- neutralization IC50 [35]: > 50 µg/mL
- neutralization IC50 [36]: 0.0006 µg/mL
- neutralization IC50 [37]: > 50 µg/mL
- neutralization IC50 (HIV Env of isolate CNE8): > 50 µg/mL
- neutralization IC50 [38]: > 50 µg/mL
